# Measured values reported in the RNAGym collection of RNA variant scans (doi:10.7554/elife.80360).
# B1: Hairpin Ribozyme (parent)
# chain: GUCCUCUUUCACGUGCGCGUGAAAGAGAGAAGUGAACCAGAGAAACACACGUUGUGGUAUAUUACCUGGUA
# Variants of: B1
# Assay: self-cleavage, relative activity (ratio to wild type); higher = more cleavage; co-transcriptional
row,Variant,self-cleavage
1,GUCCUCUUUCACGUGCGCGUGAAAGAGAGAAGUGAACCAGAGAAACACACGUUAUGGUAUAUUUCCUGGUA [G54A A64U],0.114
2,GUCCUCUUUCACGUGCGCGUGAAAGAGAGAAGUGAACCAGAGAAACACACCUUGUGGUAUAUUACCUGUUA [G51C G69U],0.224
3,GUCCUCUUUUACGUGCGCGUGAAAGAUAGAAGUGAACCAGAGAAACACACGUUGUGGUAUAUUACCUGGUA [C10U G27U],0.225
4,GUCCUUUUUCACGUGCGCGUGAAAGAGAGGAGUGAACCAGAGAAACACACGUUGUGGUAUAUUACCUGGUA [C6U A30G],0.128
5,GUCCACUUUCACGUGCGCGUGAAAGAGAGAAGUGAACCAGAGAAACACACGUUGCGGUAUAUUACCUGGUA [U5A U55C],0.157
6,GUCCUCUUUCACGUGCGCGUGAAAGAGAGAAGUGCACCAGAGAAACACACGUUGUGGUAUAUUACCGGGUA [A35C U67G],0.278
7,GUCCUCUUUCACGUGCGCGUGAAAGAGAGAAGUGAACCAGAGAAACACACGUUGUGGUAUAUUACGUCGUA [C66G G68C],0.0397
8,GUCCUCUUUCACGUGCACGUGAAAGAGAGAAGUGAACCAGAGAAACACACGUUGUGGUAUAUUACCUGAUA [G17A G69A],0.306
9,GUCCUCUUUCACGUGCGCGUGAAAGAGCGAAGUGAACCAGAGAAAAACACGUUGUGGUAUAUUACCUGGUA [A28C C46A],0.191
10,GUCCUCUUUCACGUCCGCGUGAAAGAGAGAAGUGAACCAGAGAAAUACACGUUGUGGUAUAUUACCUGGUA [G15C C46U],0.151
11,GUCCUCUUUCACGUGCGCGUGAAAGCGAGAAGUGACCCAGAGAAACACACGUUGUGGUAUAUUACCUGGUA [A26C A36C],0.488
12,GUCCUCUUUCACGUGCGCGUGAAAGAGAGAAAUGAACCAGAGAAAUACACGUUGUGGUAUAUUACCUGGUA [G32A C46U],0.148
13,GUCCUCUUUCACGUGCGCGUGGAAGAGAGAAGUGAACCAGAGAAACACACGUUGUGGUAUAUUACCUGGGA [A22G U70G],0.658
14,GUCCUCUUUCACGUGCGCGUGAAAGAGAGAAGGGAACCAGAGAAACACACGUCGUGGUAUAUUACCUGGUA [U33G U53C],0.204
15,GUCCUCUUUCACGUGAGCGUGAAAGAGAGAAGUGAACCAGAGAAACACACGUUGUGGUAUAUUACCUGUUA [C16A G69U],0.334
16,GUCCUCUUUCACGUGCGCGUGAAACAGAGAAGUGAAUCAGAGAAACACACGUUGUGGUAUAUUACCUGGUA [G25C C37U],0.502
17,GCCCUCUUUCACGUGCGCUUGAAAGAGAGAAGUGAACCAGAGAAACACACGUUGUGGUAUAUUACCUGGUA [U2C G19U],0.161
18,GUCCUCUUUCACGUGCGCGUGAAAGAGAGAAUUGAACCAGAGAAACACACGUUGUGGUAUAUUUCCUGGUA [G32U A64U],0.126
19,GUCCUCUUUCACGUGCGCGUGAAAGAGAGAAUUGAACCAGAGAAACACACGUUGUGGUAAAUUACCUGGUA [G32U U60A],0.17

row,Variant,self-cleavage
1,GUCCUCUUUCACGUGCGCGUGAAAGAGAGACGUGAACCAGAGAAACACACGUUGUGGUUUAUUACCUGGUA [A31C A59U],0.108
2,GUCCUCUUUCACGUGCGCGUGAAAGUGGGAAGUGAACCAGAGAAACACACGUUGUGGUAUAUUACCUGGUA [A26U A28G],1
3,GUCCUCUUCCACGUGCGCGUGAAAGAGAGAAGUGAACCAGAGAAACAAACGUUGUGGUAUAUUACCUGGUA [U9C C48A],0.0859
4,GUCCUCUUUCACGCGCGCGUGAAAGAGAAAAGUGAACCAGAGAAACACACGUUGUGGUAUAUUACCUGGUA [U14C G29A],0.0903
5,GUCCUCUUUCACGUGCGCGUGAAAGAGAGAAGUGAACCAGAGAAACACACGUUGUGGUAUUUUACCCGGUA [A61U U67C],0.175
6,GUCCUCUUUCACGUUCGCGUGAAAGCGAGAAGUGAACCAGAGAAACACACGUUGUGGUAUAUUACCUGGUA [G15U A26C],0.96
7,GUCCUCUUUCACGUGCGCGUGAAAGACAGAAGUGAAGCAGAGAAACACACGUUGUGGUAUAUUACCUGGUA [G27C C37G],0.239
8,GUCCUCUUCCACGUGCGCGUGAAAGAGAGAAGUGAACCAGAGAAACACACGUUGUGGUAUAUUACUUGGUA [U9C C66U],0.513
9,GUCCUCUUUCACGUGCGCGUGAAAGAGAGAUGUGAACCAGAGAAACACACGUUGUGGUAUAUUACCUGAUA [A31U G69A],0.182
10,GUCCUCUUUCACGUGCGCGUGAAAGAGAGCAGUGAACCAGAGAAACACACGUUGUGGGAUAUUACCUGGUA [A30C U58G],0.103
11,GUCUUGUUUCACGUGCGCGUGAAAGAGAGAAGUGAACCAGAGAAACACACGUUGUGGUAUAUUACCUGGUA [C4U C6G],0.0904
12,CUCUUCUUUCACGUGCGCGUGAAAGAGAGAAGUGAACCAGAGAAACACACGUUGUGGUAUAUUACCUGGUA [G1C C4U],0.228
13,GUCCACUUUCACGUGAGCGUGAAAGAGAGAAGUGAACCAGAGAAACACACGUUGUGGUAUAUUACCUGGUA [U5A C16A],0.281
14,GUCCUCUUACACGUGAGCGUGAAAGAGAGAAGUGAACCAGAGAAACACACGUUGUGGUAUAUUACCUGGUA [U9A C16A],0.626
15,GUCCUCUUUCACCUGCGCGUGAAAGAGAGAAGUGAAGCAGAGAAACACACGUUGUGGUAUAUUACCUGGUA [G13C C37G],0.183
16,GUCCUCAUUCACGUGCGCGUGAAAGAGAGUAGUGAACCAGAGAAACACACGUUGUGGUAUAUUACCUGGUA [U7A A30U],0.0668
17,GUCCUCUUUCACGUGCGCGUGAAAGGGAGAAGUGAACCAGAGAAACACACGUUGUGGUAUAAUACCUGGUA [A26G U62A],0.228
18,GUCCUCUUUCACGUACGCGUGAAAGAGAGAAGUGAAUCAGAGAAACACACGUUGUGGUAUAUUACCUGGUA [G15A C37U],0.699
19,GUCCUCUUUCACGUCCGCGUGAAAGAGGGAAGUGAACCAGAGAAACACACGUUGUGGUAUAUUACCUGGUA [G15C A28G],1.29
